According to paper PMC5431965:

Experiments:
[1] = target: HydF V261C mutant (cysteine-less background), spin labeled with MTSSL (Thermotoga neapolitana); test: PELDOR (DEER) pulse EPR; distances between spin labels on the two monomers; protein about 150 uM in deuterated buffer with 33% v/v deuterated glycerol, quickly frozen, Q-band, 50 K; without and with 10 mM GTP
[2] = target: HydF, wild type recombinant, Thermotoga neapolitana (Thermotoga neapolitana); test: SEC; Superdex 200 GL 10 300 in 25 mM Tris-HCl pH 8.0, 200 mM KCl, 1 mM MgCl2; column calibrated with molecular weight standards

Substance	stoichiometry N [1]	stoichiometry N [2]
HydF V261C mutant (cysteine-less background), spin labeled with MTSSL (natural protein)	2	
HydF, wild type recombinant, Thermotoga neapolitana (natural protein)		2
